Experimental data taken from US20250179176A1, “ANTI-TIGIT ANTIBODIES AND USES OF THE SAME” (ARCUS BIOSCIENCES, INC., priority 2022, published 2025).

Settings: in vivo

With “zimberelimab: antagonistic PD-1 antibody, immune checkpoint inhibitor” the “Any SAEs Leading to DC” value was 8 (21) n (%), the “Any SAEs Leading to Study Drug Discontinuation” value was 9 (18.0) n (%) and the “Any SAEs, events” value was 30 n. For the same substance, the “Any SAEs, subjects” value was 18 (47.4) n (%), the “Any TEAEs of Grade 3 or Higher, events” value was 41 n and the “Any TEAEs of Grade 3 or Higher, subjects” value was 20 (52.6) n (%). For the same substance, the “Any TEAEs that are immune-related” value was 24 (48.0) n (%), the “Any TEAEs, events” value was 271 n and the “Any TEAEs, subjects” value was 36 (94.7) n (%). For the same substance, the “Grade ≥3 TEAE Acute respiratory failure, events” value was 0 n, the “Grade ≥3 TEAE Acute respiratory failure, subjects” value was 0 n (%) and the “Grade ≥3 TEAE Anaemia, events” value was 2 n. For the same substance, the “Grade ≥3 TEAE Anaemia, subjects” value was 2 (5.3) n (%), the “Grade ≥3 TEAE Asthenia, events” value was 2 n and the “Grade ≥3 TEAE Asthenia, subjects” value was 2 (5.3) n (%). The “Grade ≥3 TEAE Chronic obstructive pulmonary disease, events” value was 0 n, the “Grade ≥3 TEAE Chronic obstructive pulmonary disease, subjects” value was 0 n (%) and the “Grade ≥3 TEAE Dyspnoea, events” value was 3 n. For the same substance, the “Grade ≥3 TEAE Dyspnoea, subjects” value was 3 (7.9) n (%), the “Grade ≥3 TEAE Fatigue, events” value was 0 n and the “Grade ≥3 TEAE Fatigue, subjects” value was 0 n (%). The “Grade ≥3 TEAE Hyperglycaemia, events” value was 2 n, the “Grade ≥3 TEAE Hyperglycaemia, subjects” value was 2 (5.3) n (%) and the “Grade ≥3 TEAE Hyperkalaemia, events” value was 0 n. The “Grade ≥3 TEAE Hyperkalaemia, subjects” value was 0 n (%), the “Grade ≥3 TEAE Hypertension, events” value was 0 n and the “Grade ≥3 TEAE Hypertension, subjects” value was 0 n (%). For the same substance, the “Grade ≥3 TEAE Hypokalaemia, events” value was 3 n, the “Grade ≥3 TEAE Hypokalaemia, subjects” value was 3 (7.9) n (%) and the “Grade ≥3 TEAE Hypoxia, events” value was 1 n. The “Grade ≥3 TEAE Hypoxia, subjects” value was 1 (2.6) n (%), the “Grade ≥3 TEAE Myocardial infarction, events” value was 1 n and the “Grade ≥3 TEAE Myocardial infarction, subjects” value was 1 (2.6) n (%). For the same substance, the “Grade ≥3 TEAE Pericardial effusion, events” value was 1 n, the “Grade ≥3 TEAE Pericardial effusion, subjects” value was 1 (2.6) n (%) and the “Grade ≥3 TEAE Pleural effusion, events” value was 2 n. For the same substance, the “Grade ≥3 TEAE Pleural effusion, subjects” value was 2 (5.3) n (%), the “Grade ≥3 TEAE Pneumonia, events” value was 2 n and the “Grade ≥3 TEAE Pneumonia, subjects” value was 2 (5.3) n (%). For the same substance, the “Grade ≥3 TEAE Pneumonitis, events” value was 2 n, the “Grade ≥3 TEAE Pneumonitis, subjects” value was 2 (5.3) n (%) and the “Grade ≥3 TEAE Pulmonary embolism, events” value was 3 n. For the same substance, the “Grade ≥3 TEAE Pulmonary embolism, subjects” value was 3 (7.9) n (%), the “Grade ≥3 TEAE Respiratory failure, events” value was 0 n and the “Grade ≥3 TEAE Respiratory failure, subjects” value was 0 n (%). For the same substance, the “Grade ≥3 TEAE Sepsis, events” value was 0 n, the “Grade ≥3 TEAE Sepsis, subjects” value was 0 n (%) and the “Grade ≥3 TEAE Septic shock, events” value was 1 n. The “Grade ≥3 TEAE Septic shock, subjects” value was 1 (2.6) n (%), the “Grade ≥3 TEAE Spinal compression fracture, events” value was 2 n and the “Grade ≥3 TEAE Spinal compression fracture, subjects” value was 2 (5.3) n (%). For the same substance, the “Immune-related TEAE Acute respiratory failure” value was 0 n (%), the “Immune-related TEAE Bronchospasm” value was 0 n (%) and the “Immune-related TEAE Bulbar palsy” value was 0 n (%). For the same substance, the “Immune-related TEAE Colitis” value was 0 n (%), the “Immune-related TEAE Contrast media reaction” value was 1 (2.0) n (%) and the “Immune-related TEAE Diabetes mellitus” value was 1 (2.0) n (%). The “Immune-related TEAE Diabetic ketoacidosis” value was 1 (2.0) n (%), the “Immune-related TEAE Drug eruption” value was 1 (2.0) n (%) and the “Immune-related TEAE Erythema” value was 1 (2.0) n (%). The “Immune-related TEAE Eyelid oedema” value was 0 n (%), the “Immune-related TEAE Flushing” value was 1 (2.0) n (%) and the “Immune-related TEAE Generalised oedema” value was 0 n (%). For the same substance, the “Immune-related TEAE Hyperthyroidism” value was 1 (2.0) n (%), the “Immune-related TEAE Hypothyroidism” value was 4 (8.0) n (%) and the “Immune-related TEAE Idiopathic urticaria” value was 0 n (%). The “Immune-related TEAE Immune-mediated enterocolitis” value was 1 (2.0) n (%), the “Immune-related TEAE Infusion related reaction” value was 0 n (%) and the “Immune-related TEAE Lichen planus” value was 0 n (%). The “Immune-related TEAE Mouth ulceration” value was 0 n (%), the “Immune-related TEAE Myocarditis” value was 0 n (%) and the “Immune-related TEAE Myositis” value was 1 (2.0) n (%). The “Immune-related TEAE Pancreatitis” value was 0 n (%), the “Immune-related TEAE Pneumonitis” value was 7 (14.0) n (%) and the “Immune-related TEAE Pneumonitis Grade ≥3” value was 3 (6) n (%). For the same substance, the “Immune-related TEAE Pruritus” value was 8 (16.0) n (%), the “Immune-related TEAE Rash” value was 6 (12.0) n (%) and the “Immune-related TEAE Rash maculo-papular” value was 1 (2.0) n (%). The “Immune-related TEAE Rash pustular” value was 0) n (%), the “Immune-related TEAE Respiratory failure” value was 1 (2.0) n (%) and the “Immune-related TEAE Rheumatoid arthritis” value was 0 n (%). For the same substance, the “Immune-related TEAE Rhinitis allergic” value was 0 n (%), the “Immune-related TEAE Seasonal allergy” value was 0 n (%) and the “Immune-related TEAE Stomatitis” value was 0 n (%). For the same substance, the “Immune-related TEAE Thyroiditis” value was 0 n (%), the “Immune-related TEAE Tracheal obstruction” value was 0 n (%) and the “Immune-related TEAE Type I diabetes mellitus” value was 1 (2.0) n (%). For the same substance, the “Immune-related TEAE Urticaria” value was 0 n (%), the “Immune-related TEAE Wheezing” value was 0 n (%) and the Infusion-related reactions was 2 (4) n (%). For the same substance, the Rash was 6 (12) n (%), the “SAE Anaemia, events” value was 0 n and the “SAE Anaemia, subjects” value was 0 n (%). For the same substance, the “SAE Asthenia, events” value was 2 n, the “SAE Asthenia, subjects” value was 2 (5.3) n (%) and the “SAE Chronic obstructive pulmonary disease, events” value was 0 n. The “SAE Chronic obstructive pulmonary disease, subjects” value was 0 n (%), the “SAE Myocardial infarction, events” value was 1 n and the “SAE Myocardial infarction, subjects” value was 1 (2.6) n (%). The “SAE Pleural effusion, events” value was 3 n, the “SAE Pleural effusion, subjects” value was 2 (5.3) n (%) and the “SAE Pneumonia, events” value was 2 n. For the same substance, the “SAE Pneumonia, subjects” value was 2 (5.3) n (%), the “SAE Pneumonitis, events” value was 1 n and the “SAE Pneumonitis, subjects” value was 1 (2.6) n (%). The “SAE Pulmonary embolism, events” value was 3 n, the “SAE Pulmonary embolism, subjects” value was 3 (7.9) n (%) and the “SAE Septic shock, events” value was 1 n. For the same substance, the “SAE Septic shock, subjects” value was 1 (2.6) n (%), the “SAE Spinal compression fracture, events” value was 2 n and the “SAE Spinal compression fracture, subjects” value was 2 (5.3) n (%). For the same substance, the “TEAE Constipation, events” value was 6 n, the “TEAE Constipation, subjects” value was 4 (10.5) n (%) and the “TEAE Decreased appetite, events” value was 6 n. The “TEAE Decreased appetite, subjects” value was 6 (15.8) n (%), the “TEAE Diarrhoea, events” value was 7 n and the “TEAE Diarrhoea, subjects” value was 6 (15.8) n (%). For the same substance, the “TEAE Dyspnoea, events” value was 9 n, the “TEAE Dyspnoea, subjects” value was 7 (18.4) n (%) and the “TEAE Fatiguc, events” value was 11 n. For the same substance, the “TEAE Fatiguc, subjects” value was 11 (28.9) n (%), the “TEAE Nausea, events” value was 7 n and the “TEAE Nausea, subjects” value was 7 (18.4) n (%). The “TEAE Pneumonia, events” value was 2 n, the “TEAE Pneumonia, subjects” value was 2 (5.3) n (%) and the “TEAE Pneumonitis, events” value was 7 n. For the same substance, the “TEAE Pneumonitis, subjects” value was 6 (15.8) n (%), the “TEAE Pruritus, events” value was 6 n and the “TEAE Pruritus, subjects” value was 6 (15.8) n (%). For the same substance, the “TEAE Pyrexia, events” value was 4 n, the “TEAE Pyrexia, subjects” value was 4 (10.5) n (%) and the “TEAE Rash, events” value was 8 n. The “TEAE Rash, subjects” value was 3 (7.9) n (%), the “TEAE Vomiting, events” value was 3 n and the “TEAE Vomiting, subjects” value was 3 (7.9) n (%). For the same substance, the “TEAEs leading to study drug mod. int.” value was 12 (24.0) n (%), the “TEAEs leading to study drug mod. int., related to study treatment” value was 7 (14.0) n (%) and the “TEAEs leading to zim discon., related to zim” value was 9 (18.0) n (%). The “TEAEs leading to zim mod./int., related to zim” value was 7 (14.0) n (%), the “grade 3 treatment-emergent adverse events” value was 58% and the tolerability was “well tolerated”.
